# Experimental data as given in paper PMC3167817.
# Columns and labels:
# [1] = molecular target: EGFR on NIH/EGFR cells (human) (UniProt P00533); test: cell binding, radiolabeled aptamer; details: apparent Kd; parental NIH3T3 not bound; 2'-fluoro pyrimidines; Filter binding: 1 nM radiolabeled RNA, PBS + 0.01% BSA, 15 min, 37 C (5 mM DTT for monomer); CL4sc background subtracted; pull-down: 200 nM aptamer on A549 …
# [2] = molecular target: EGFR on A549 cells (endogenous) (human) (UniProt P00533); test: cell binding, radiolabeled aptamer; details: A549 cells; binding decreased by EGFR shRNA and 1 uM EGF; 2'-fluoro pyrimidines; Filter binding: 1 nM radiolabeled RNA, PBS + 0.01% BSA, 15 min, 37 C (5 mM DTT for monomer); CL4sc background subtracted; pull-down: 200 nM aptamer on A549 …
sequence,measurement,setting,value
GCCUUAGUAACGUGCUUUGAUGUCGAUUCGACAGGAGGC [CL4],Kd,[1],60 nM
same,Kd,[2],38 nM
